{"source": "paper PMC10984559", "binders": {"B1": {"name": "ds16UA5 (R16/R22A) (dsRNA)", "RNA 1": "AGCACCGUAAAGACGC", "RNA 2": "GCGUCUUUACGGUGCUUAAAAA"}}, "molecular_target": "T1, Mtr4 ΔSLYL (Saccharomyces cerevisiae, UniProt P47047 1-1069, del1070-1073)", "T1 sequence": "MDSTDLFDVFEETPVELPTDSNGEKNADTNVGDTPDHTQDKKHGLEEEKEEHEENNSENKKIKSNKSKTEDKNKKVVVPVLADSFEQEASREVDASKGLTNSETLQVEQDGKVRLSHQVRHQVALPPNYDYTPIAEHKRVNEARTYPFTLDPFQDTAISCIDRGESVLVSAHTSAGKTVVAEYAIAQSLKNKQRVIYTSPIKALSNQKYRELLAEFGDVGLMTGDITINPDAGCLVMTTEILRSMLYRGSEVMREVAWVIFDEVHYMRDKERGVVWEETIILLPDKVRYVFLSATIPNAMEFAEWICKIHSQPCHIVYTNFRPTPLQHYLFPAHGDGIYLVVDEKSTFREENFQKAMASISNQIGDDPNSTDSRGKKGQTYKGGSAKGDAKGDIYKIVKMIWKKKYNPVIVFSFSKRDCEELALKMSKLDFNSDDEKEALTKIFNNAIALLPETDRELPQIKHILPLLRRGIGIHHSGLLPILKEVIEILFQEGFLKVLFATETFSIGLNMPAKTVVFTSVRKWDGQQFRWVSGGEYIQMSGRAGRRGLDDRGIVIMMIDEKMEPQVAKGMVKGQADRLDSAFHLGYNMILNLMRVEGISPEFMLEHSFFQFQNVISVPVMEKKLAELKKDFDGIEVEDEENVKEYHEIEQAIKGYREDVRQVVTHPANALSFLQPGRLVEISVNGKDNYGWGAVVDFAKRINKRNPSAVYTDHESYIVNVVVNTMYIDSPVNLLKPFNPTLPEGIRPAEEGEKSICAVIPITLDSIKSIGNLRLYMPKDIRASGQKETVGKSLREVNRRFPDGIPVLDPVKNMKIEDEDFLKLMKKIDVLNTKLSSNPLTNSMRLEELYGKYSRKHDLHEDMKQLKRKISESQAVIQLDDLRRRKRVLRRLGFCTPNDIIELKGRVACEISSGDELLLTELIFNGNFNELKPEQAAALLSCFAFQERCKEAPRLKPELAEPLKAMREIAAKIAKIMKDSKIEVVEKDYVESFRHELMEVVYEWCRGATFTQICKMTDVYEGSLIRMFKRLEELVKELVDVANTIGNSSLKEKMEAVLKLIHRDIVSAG", "assay": "EMSA", "data": [{"binder": "B1", "values": [{"measurement": "binding signal", "result": "> 5", "unit": "fold Kd vs WT"}]}]}
